Measurements taken from US20260158139A1, “CARD9 VARIANT POLYPEPTIDE AND ANTIBODIES DIRECTED THERETO” (The Broad Institute, Inc., priority 2023, published 2026).

B1: Bcl10 (endogenous, in mouse BMDCs) (other, UniProt Q9Z0H7 1-233, looked up)
chain: MEAPAPSLTEEDLTEVKKDALENLRVYLCEKIIAERHFDHLRAKKILSREDTEEISCRTSSRKRAGKLLDYLQENPRGLDTLVESIRREKTQSFLIQKITDEVLKLRNIKLEHLKGLKCSSCEPFAAGATNNLSRCNSDESNLSEKQRASTVMYHPEGESSTAPFFSMASSLNLPVLEVGRTENSSFSSATLPRPGDPGAPPLPPDLRLEEGGSCGNSSEMFLPLRSRALSRQ

Key:
[1] = system: T1, CARD9 R101C overexpressed in HEK 293T cells
T1 sequence (Q9H257 1-536 with R101C, species assumed, looked up): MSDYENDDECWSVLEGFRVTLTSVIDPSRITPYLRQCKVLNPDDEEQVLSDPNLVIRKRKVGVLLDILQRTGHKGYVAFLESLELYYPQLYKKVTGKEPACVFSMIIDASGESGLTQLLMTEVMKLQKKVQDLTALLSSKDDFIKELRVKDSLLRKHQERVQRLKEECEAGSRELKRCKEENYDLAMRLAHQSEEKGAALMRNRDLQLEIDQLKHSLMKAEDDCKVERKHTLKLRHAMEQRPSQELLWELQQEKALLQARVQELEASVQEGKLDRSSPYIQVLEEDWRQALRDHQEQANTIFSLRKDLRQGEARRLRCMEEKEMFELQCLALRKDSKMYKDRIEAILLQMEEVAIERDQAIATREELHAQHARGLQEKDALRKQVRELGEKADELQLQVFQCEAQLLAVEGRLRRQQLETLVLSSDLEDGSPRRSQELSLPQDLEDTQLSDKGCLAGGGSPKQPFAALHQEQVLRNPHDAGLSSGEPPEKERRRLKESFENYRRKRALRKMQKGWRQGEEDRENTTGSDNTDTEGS

[2] = system: T2, CARD9 S104N overexpressed in HEK 293T cells
T2 sequence (Q9H257 1-536 with S104N, species assumed, looked up): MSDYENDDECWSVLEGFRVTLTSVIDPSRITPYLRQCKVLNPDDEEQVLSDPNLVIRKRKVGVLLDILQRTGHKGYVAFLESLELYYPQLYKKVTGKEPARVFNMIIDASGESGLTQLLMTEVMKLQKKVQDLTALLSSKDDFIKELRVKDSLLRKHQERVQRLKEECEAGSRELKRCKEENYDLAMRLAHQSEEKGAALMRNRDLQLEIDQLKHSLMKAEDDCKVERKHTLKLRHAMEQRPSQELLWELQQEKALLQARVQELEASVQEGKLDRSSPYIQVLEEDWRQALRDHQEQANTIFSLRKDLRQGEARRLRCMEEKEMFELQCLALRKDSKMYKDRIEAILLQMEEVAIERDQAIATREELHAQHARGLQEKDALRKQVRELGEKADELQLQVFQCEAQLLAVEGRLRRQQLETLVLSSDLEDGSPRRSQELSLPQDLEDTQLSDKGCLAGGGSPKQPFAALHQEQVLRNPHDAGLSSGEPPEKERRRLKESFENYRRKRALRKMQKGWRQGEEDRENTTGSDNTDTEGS

[3] = system: T3, CARD9 FL overexpressed in HEK 293T cells
T3 sequence (Q9H257 1-536, species assumed, looked up): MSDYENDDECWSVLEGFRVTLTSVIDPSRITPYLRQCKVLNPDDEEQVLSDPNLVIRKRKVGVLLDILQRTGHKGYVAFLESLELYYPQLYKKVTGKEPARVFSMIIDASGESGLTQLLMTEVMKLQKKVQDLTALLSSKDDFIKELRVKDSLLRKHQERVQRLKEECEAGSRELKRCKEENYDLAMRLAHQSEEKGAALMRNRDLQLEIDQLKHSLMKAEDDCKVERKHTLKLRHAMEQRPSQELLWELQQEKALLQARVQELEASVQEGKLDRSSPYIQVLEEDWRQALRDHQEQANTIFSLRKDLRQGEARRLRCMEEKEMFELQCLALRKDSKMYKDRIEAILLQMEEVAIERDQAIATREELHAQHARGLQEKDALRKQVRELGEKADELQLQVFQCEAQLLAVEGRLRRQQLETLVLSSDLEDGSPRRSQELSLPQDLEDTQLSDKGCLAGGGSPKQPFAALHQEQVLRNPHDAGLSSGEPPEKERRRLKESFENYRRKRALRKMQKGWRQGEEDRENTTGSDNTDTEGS

[4] = target: T4, CARD9 (endogenous, in WT mouse BMDCs) (Mus musculus, UniProt A2AIV8 1-536); assay: Bcl10 immunoprecipitation from HKCA-stimulated BMDCs, western blot for CARD9
T4 construct: Endogenous protein in lysates of HKCA-stimulated WT mouse BMDCs; also called WT CARD9
T4 sequence: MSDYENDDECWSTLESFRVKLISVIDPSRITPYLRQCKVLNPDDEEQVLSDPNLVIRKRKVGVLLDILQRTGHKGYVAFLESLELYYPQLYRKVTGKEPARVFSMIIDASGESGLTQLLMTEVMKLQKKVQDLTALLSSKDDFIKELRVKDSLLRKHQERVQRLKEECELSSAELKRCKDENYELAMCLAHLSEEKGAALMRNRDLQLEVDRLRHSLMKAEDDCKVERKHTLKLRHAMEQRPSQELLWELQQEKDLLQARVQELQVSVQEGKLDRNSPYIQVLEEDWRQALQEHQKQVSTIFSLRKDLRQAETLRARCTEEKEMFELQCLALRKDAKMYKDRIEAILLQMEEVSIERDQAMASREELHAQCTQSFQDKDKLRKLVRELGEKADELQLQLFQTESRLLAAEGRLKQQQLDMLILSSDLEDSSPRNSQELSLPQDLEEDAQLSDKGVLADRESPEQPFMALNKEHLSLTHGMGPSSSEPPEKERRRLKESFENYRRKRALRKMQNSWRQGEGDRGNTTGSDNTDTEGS
Procedure: (§1) Lysate was incubated for 30 min and centrifuged at 2000 rpm for 10 min at 4° C. 50 μl of the supernatant was collected as whole cell lysate (WCL) fraction. Remaining supernatant was collected and incubated overnight with 10 al/sample of CARD9 antibody (Cell Signaling Technology #12283S) at 4° C. while rotating. The next day, 50 μl of Dynabeads Protein G beads (Life Technologies #10004D) were added and incubated for 1 h rotating at 4° C. Immunoprecipitates were washed 3× with standard lysis buffer and resuspended in 25 μl of 2× Laemmli buffer (BioRad #1610737) supplemented with 5% R-mercaptoethanol followed by boiling for 10 min at 75° C. For Bcl10 IP to detect CBM complex formation, cell pellets were resuspended in lysis buffer (PBS, 0.5% NP-40) supplemented with 1× Halt Protease & Phosphatase Inhibitor Single-Use Cocktail and Pierce Universal Nuclease and kept on ice for 10 min. Lysate was centrifuged for 10 min at 2000 rpm at 4° C. 50 μl of the supernatant was collected as whole cell lysate (WCL) fraction. Remaining supernatant was incubated overnight with 200 al/sample of Bcl10 antibody (Santa Cruz Biotechnology #sc-5273) at 4° C. rotating. The next day, 50 μl of Dynabeads Protein G beads were added and incubated for 1 h rotating at 4° C. […]

[5] = target: T5, CARD9 R101C (endogenous knock-in variant, in CARD9 R101C mouse BMDCs) (Mus musculus, UniProt A2AIV8 1-536); assay: Bcl10 immunoprecipitation from HKCA-stimulated BMDCs, western blot
T5 construct: CRISPR knock-in mouse; The protein stood in lysates of HKCA-stimulated BMDCs
T5 sequence: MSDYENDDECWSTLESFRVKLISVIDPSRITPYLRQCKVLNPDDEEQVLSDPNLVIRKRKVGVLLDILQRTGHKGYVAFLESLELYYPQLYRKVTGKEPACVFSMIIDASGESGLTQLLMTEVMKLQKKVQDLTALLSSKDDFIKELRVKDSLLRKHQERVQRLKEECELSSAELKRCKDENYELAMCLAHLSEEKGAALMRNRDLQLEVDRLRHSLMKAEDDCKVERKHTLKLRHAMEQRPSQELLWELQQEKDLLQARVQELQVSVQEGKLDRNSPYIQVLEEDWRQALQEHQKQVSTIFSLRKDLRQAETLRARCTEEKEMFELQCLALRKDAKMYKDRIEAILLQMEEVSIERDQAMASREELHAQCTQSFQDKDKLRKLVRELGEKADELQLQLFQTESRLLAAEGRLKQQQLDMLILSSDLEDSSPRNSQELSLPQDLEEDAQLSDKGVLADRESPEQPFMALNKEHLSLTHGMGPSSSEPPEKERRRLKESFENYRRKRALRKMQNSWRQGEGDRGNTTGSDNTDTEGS
Procedure: as §1

Molecule | in vitro phosphorylation assay (western blot) [1] | in vitro phosphorylation assay (western blot) [2] | in vitro phosphorylation assay (western blot) [3] | binding result [4] | binding result [5]
purified PKCδ (Promega PKCδ Kinase Enzyme System #V3401) | this phosphorylation requires an intact RXXS motif in the linker domain | this phosphorylation requires an intact RXXS motif in the linker domain | PKCd does indeed phosphorylate S104 |  | 
B1 |  |  |  | binds | no binding
